Each block holds one binder with its values, some of them ahead of it.
Tests used:
[1] = molecular target: NEM-huIL-18 (recombinant mature human IL-18 treated with N-ethyl maleiamide) (human) (UniProt Q14116); assay: cell-based or functional assay
[2] = molecular target: natural human IL-18 (endogenous, human whole blood) (human) (UniProt Q14116); assay: cell-based or functional assay
[3] = molecular target: recombinant mature human IL-18 (preparation not specified) (human) (UniProt Q14116); assay: cell-based or functional assay
[4] = molecular target: (4C/A)-huIL-18 (4C/A mutant of mature human IL-18) (human) (UniProt Q14116); assay: BIACORE
[5] = molecular target: 125I labeled rhu-IL-18 (human) (UniProt Q14116); assay: RBA: inhibition of 125I-rhu-IL-18 binding to IL-18Rαβ on KG-1 cells
[6] = molecular target: NEM-huIL-18 (recombinant mature human IL-18 treated with N-ethyl maleiamide) (human) (UniProt Q14116); assay: Biacore
[7] = molecular target: (4C/A)-huIL-18 (4C/A mutant of mature human IL-18) (human) (UniProt Q14116); assay: Biacore

KG-1 Assays (IC50, M), NEM-rhuIL-18 [1]: 7e-09 M
B1: 268 (antibody, V domains shown)
VH: ZVQLVESGGGVVQPGRSLRLSCAASGFTFRNYGLHWVRQAPGKGLEWVAVIWYDGSNKYYADSVKGRFTISRDNSKNTLYLQMNSLRAEDTAVYYCARESYYYYGMDVWGQGTTVTVSS
VL: EIVMTQSPATLSVSPGERATLSCRASQSFNSNLVWYQQKPGQAPRLLIYGASTRATGIPARFSGSGSGTEFTLTISSLQSEDFAVYYCQQYNNWTWTFGQGTKVEIKR

WBA, Neutralization Potency in vitro (IC50, nM) [2]: 3 nM | KG-1, Neutralization Potency in vitro (IC50, nM) [3]: 0.2 nM | Kd [4]: 0.55 nM | koff [4]: 0.00011 s⁻¹ | kon [4]: 190000 M⁻¹ s⁻¹ | IC50 [5]: > 300 nM | Kd [6]: 0.2 nM | Kd [7]: 0.2 nM
B2: Murine anti-human IL-18 mAb (125-2H) (antibody, from another filing, V domains shown)
VH: EIQLQQSGPELVKPGASVKVSCKASGYSFTDYFIYWVKQSHGKSLEWIGDIDPYNGDTSYNQKFRDKATLTVDQSSTTAFMHLNSLTSEDSAVYFCARGLRFWGQGTLVTVSA
VL: DIQMTQSPSSLSASLGERVSLTCRASQDIGSKLYWLQQEPDGTFKRLIYATSSLDSGVPKRFSGSRSGSDYSLTISSLESEDFVDYYCLQYASSPYTFGGGTKLAIKR

— patent US20050147610A1
